The target in the data set is T1, NalC-His (Pseudomonas aeruginosa K767) (UniProt Q9HXS0).
T1 sequence: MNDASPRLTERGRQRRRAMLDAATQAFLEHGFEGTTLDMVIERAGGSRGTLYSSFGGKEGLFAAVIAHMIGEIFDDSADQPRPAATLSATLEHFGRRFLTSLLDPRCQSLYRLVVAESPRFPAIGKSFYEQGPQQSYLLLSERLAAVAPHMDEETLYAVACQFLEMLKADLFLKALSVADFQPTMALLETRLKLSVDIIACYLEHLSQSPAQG
Nature of the data set: EMSA. For orientation: In EMSA bound probe runs differently from free probe, usually more slowly.

Consider “CTAACGAGAAACGCTCTCAGCAAACCGCCTGGAGGCTTGAACGGACCGTCCCGACGGCCCACCATGCGCACCTTCCGACCGCCACCCCGCGAGGCCCGATACCGCTC (double strand) [PA3720-proximal fragment (endpoints II)]”, for which the binding entry is reported as “binds”.
The value for “GAGCGGTATCGGGCCTCGCGGGGTGGCGGTCGGAAGGTGCGCATGGTGGGCCGTCGGGACGGTCCGTTCAAGCCTCCAGGCGGTTTGCTGAGAGCGTTTCTCGTTAGGGTTGACGCTGGTCATTTAAGAACTGTATCGTACAGTACTGTTTTGGCAAGCACTTCCGCTCATTCCTCCGCCTTGCCTCCCCGCAGGAGTCCCCCCA (double strand) [nalC-PA3720 intergenic region]” was “binds”.
The value for “TTAGGGTTGACGCTGGTCATTTAAGAACTGTATCGTACAGTACTGTTTTGGCAAGCACTTCCGCTCATTCCTCCGCCTTGCCTCCCCGCAGGAGTCCCCCCA (double strand) [PA3720-distal fragment (endpoints I)]” was “no binding”.

The values are drawn from PMC3290565.
